Experimental data taken from patent US20130045895A1 (published 2013).
Changes are numbered by the printed parent chain. Names may count otherwise.

Assays:
Human Serum Albumin [1] = biological target: T1, Human Serum Albumin (human, UniProt P02768 25-609); assay: BIAcore, supernatant over immobilised HSA (6036 RU);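 note: expressed culture supernatants of mutant clones diluted 1:1 in HBS-EP buffer and screened for binding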
T1 construct: also called HSA; antigen
Method: Screening of expressed supernatants for Protein L and HSA binding: Mutant clones were picked into a 96 well plate format and expressed in 1 mL 2×TY 0.1 mg/ml carbenicillin supplemented with OnEx solutions 1, 2 and 3 according to the manufacturer's instructions (Novagen). Cultures were grown at 30° C. for 3 days at 950 rpm high humidity in an InforsHT shaker. Cells were pelleted by centrifugation (4.5 k in a bench top Sorvall centrifuge for 30 mins) and 75 μL of the supernatant added to an equal volume of HBS-EP buffer (GE Healthcare).

Human Serum Albumin [2] = biological target: T1, Human Serum Albumin; assay: SPR (Biacore 2000), purified dAb over HSA (559 RU) on CM5 chip
From the text: (§1) The data analysis followed routine and established algorithms using the instrument's software (Bia-evaluation 3.2 RC1).

Human Serum Albumin [3] = biological target: T1, Human Serum Albumin; assay: as above; remark: listed apart in the source
From the text: as §1

T1 sequence (P02768 25-609 limits assumed): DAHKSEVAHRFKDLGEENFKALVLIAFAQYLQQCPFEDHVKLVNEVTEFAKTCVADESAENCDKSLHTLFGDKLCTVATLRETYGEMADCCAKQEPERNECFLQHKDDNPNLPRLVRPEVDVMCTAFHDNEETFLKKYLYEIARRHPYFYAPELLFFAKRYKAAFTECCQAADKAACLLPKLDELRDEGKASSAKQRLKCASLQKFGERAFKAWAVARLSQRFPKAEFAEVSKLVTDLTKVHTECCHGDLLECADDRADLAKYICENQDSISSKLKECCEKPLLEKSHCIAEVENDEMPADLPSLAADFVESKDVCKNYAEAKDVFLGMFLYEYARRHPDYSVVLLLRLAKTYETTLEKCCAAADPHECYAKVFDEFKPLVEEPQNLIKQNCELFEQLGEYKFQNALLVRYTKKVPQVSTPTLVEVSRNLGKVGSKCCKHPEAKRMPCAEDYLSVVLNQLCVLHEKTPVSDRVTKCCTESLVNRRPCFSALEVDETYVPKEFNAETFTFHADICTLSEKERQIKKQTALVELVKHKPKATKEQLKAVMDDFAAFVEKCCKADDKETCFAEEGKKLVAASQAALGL

B1: DOM7h-14 A43C (other)
VL: DIQMTQSPSSLSASVGDRVTITCRASQWIGSQLSWYQQKPGKCPKLLIMWRSSLQSGVPSRFSGSGSGTDFTLTISSLQPEDFATYYCAQGAALPRTFGQGTKVEIKR
B1: binds (Human Serum Albumin [1]).

B2: DOM7h-14 P44T (other)
VL: B1 VL with C43A, P44T
B2: binds (Human Serum Albumin [1]).

B3: DOM7h-14 P44M (other)
VL: B1 VL with C43A, P44M
B3: binds (Human Serum Albumin [1]).

B4: DOM7h-14 Q38K (other)
VL: B1 VL with Q38K, C43A
B4: binds (Human Serum Albumin [1]).

B5: DOM7h-14 Q38H (other)
VL: B1 VL with Q38H, C43A
B5: binds (Human Serum Albumin [1]).

B6: DOM7h-14 A43H (other)
VL: B1 VL with C43H
B6: binds (Human Serum Albumin [1]).

B7: DOM7h-14 Q38E (other)
VL: B1 VL with Q38E, C43A
B7: binds (Human Serum Albumin [1]).

B8: DOM7h-14 P44R (other)
VL: B1 VL with C43A, P44R
B8: binds (Human Serum Albumin [1]).

B9: DOM7h-14 P44V (other)
VL: B1 VL with C43A, P44V
B9: binds (Human Serum Albumin [1]).

B10: DOM7h-14 Q38W (other)
VL: B1 VL with Q38W, C43A
B10: binds (Human Serum Albumin [1]).

B11: DOM7h-14 P44Q (other)
VL: B1 VL with C43A, P44Q
B11: binds (Human Serum Albumin [1]).

B12: DOM7h-14 Q38S (other)
VL: B1 VL with Q38S, C43A
B12: binds (Human Serum Albumin [1]).

B13: DOM7h-14 P44E (other)
VL: B1 VL with C43A, P44E
B13: binds (Human Serum Albumin [1]).

B14: DOM7h-14 A43K (other)
VL: B1 VL with C43K
B14: binds (Human Serum Albumin [1]).

B15: DOM7h-14 Q38R (other)
VL: B1 VL with Q38R, C43A
B15: binds (Human Serum Albumin [1]).

B16: DOM7h-14 Q38Y (other)
VL: B1 VL with Q38Y, C43A
B16: binds (Human Serum Albumin [1]).

B17: DOM7h-14 A43G (other)
VL: B1 VL with C43G
B17: binds (Human Serum Albumin [1]).

B18: DOM7h-14 P44I (other)
VL: B1 VL with C43A, P44I
B18: binds (Human Serum Albumin [1]).

B19: DOM7h-14 Q38G (other)
VL: B1 VL with Q38G, C43A
B19: binds (Human Serum Albumin [1]).

B20: DOM7h-14 P44W (other)
VL: B1 VL with C43A, P44W
B20: binds (Human Serum Albumin [1]).

B21: DOM7h-14 A43Y (other)
VL: B1 VL with C43Y
B21: binds (Human Serum Albumin [1]).

B22: DOM7h-14 P44S (other)
VL: B1 VL with C43A, P44S
B22: binds (Human Serum Albumin [1]).

B23: DOM7h-14 P44H (other)
VL: B1 VL with C43A, P44H
B23: binds (Human Serum Albumin [1]).

B24: DOM7h-14 A43T (other)
VL: B1 VL with C43T
B24: binds (Human Serum Albumin [1]).

B25: DOM7h-14 P44C (other)
VL: B1 VL with C43A, P44C
B25: binds (Human Serum Albumin [1]).

B26: DOM7h-14 Q38T (other)
VL: B1 VL with Q38T, C43A
B26: binds (Human Serum Albumin [1]).

B27: DOM7h-14 Q38C (other)
VL: B1 VL with Q38C, C43A
B27: binds (Human Serum Albumin [1]).

B28: DOM7h-14 Q38F (other)
VL: B1 VL with Q38F, C43A
B28: binds (Human Serum Albumin [1]).

B29: DOM7h-14 Q38A (other)
VL: B1 VL with Q38A, C43A
B29: binds (Human Serum Albumin [1]).

B30: DOM7h-14 A43R (other)
VL: B1 VL with C43R
B30: binds (Human Serum Albumin [1]).

B31: DOM7h-14 A43N (other)
VL: B1 VL with C43N
B31: binds (Human Serum Albumin [1]).

B32: DOM7h-14 Q38M (other)
VL: B1 VL with Q38M, C43A
B32: binds (Human Serum Albumin [1]).

B33: DOM7h-14 Q38V (other)
VL: B1 VL with Q38V, C43A
B33: binds (Human Serum Albumin [1]).

B34: DOM7h-14-10 A43D (other, name in Kabat numbering)
VL: B1 VL with C43D, A92L, A93R, L94H, R96K
notes: also called A43D mutant of DOM7h-14-10
With B34 the “fold improvement in antigen affinity over DOM7h-14-10” value (Human Serum Albumin [2]) was 2 fold, the Kd (Human Serum Albumin [3]) was 11.7 nM and the koff (Human Serum Albumin [3]) was 0.012 s⁻¹. For the same binder, the kon (Human Serum Albumin [3]) was 990000 M⁻¹ s⁻¹.

B35: DOM7h-14 A43L (other)
VL: B1 VL with C43L
B35: binds (Human Serum Albumin [1]).

B36: DOM7h-14 A43V (other)
VL: B1 VL with C43V
B36: binds (Human Serum Albumin [1]).

B37: DOM7h-14 Q38D (other)
VL: B1 VL with Q38D, C43A
B37: binds (Human Serum Albumin [1]).

B38: DOM7h-14 A43E (other)
VL: B1 VL with C43E
B38: binds (Human Serum Albumin [1]).

B39: DOM7h-14 A43F (other)
VL: B1 VL with C43F
B39: binds (Human Serum Albumin [1]).

B40: DOM7h-14 Q38I (other)
VL: B1 VL with Q38I, C43A
B40: binds (Human Serum Albumin [1]).

B41: DOM7h-14 P44L (other)
VL: B1 VL with C43A, P44L
B41: binds (Human Serum Albumin [1]).

B42: DOM7h-14 P44A (other)
VL: B1 VL with C43A, P44A
B42: binds (Human Serum Albumin [1]).

B43: DOM7h-14 A43I (other)
VL: B1 VL with C43I
B43: binds (Human Serum Albumin [1]).

B44: DOM7h-14 A43M (other)
VL: B1 VL with C43M
B44: binds (Human Serum Albumin [1]).

B45: DOM7h-14 Q38L (other)
VL: B1 VL with Q38L, C43A
B45: binds (Human Serum Albumin [1]).

B46: DOM7h-14 P44N (other)
VL: B1 VL with C43A, P44N
B46: binds (Human Serum Albumin [1]).

B47: DOM7h-14 A43P (other)
VL: B1 VL with C43P
B47: binds (Human Serum Albumin [1]).

B48: DOM7h-14 P44G (other)
VL: B1 VL with C43A, P44G
B48: binds (Human Serum Albumin [1]).

B49: DOM7h-14 Q38N (other)
VL: B1 VL with Q38N, C43A
B49: binds (Human Serum Albumin [1]).

B50: DOM7h-14 Q38P (other)
VL: B1 VL with Q38P, C43A
B50: binds (Human Serum Albumin [1]).

B51: DOM7h-14-10 (other)
VL: B1 VL with C43A, A92L, A93R, L94H, R96K
notes: also called DOM7h-14-10 parent
B51 gave a Kd (Human Serum Albumin [3]) of 26 nM, a koff (Human Serum Albumin [3]) of 0.017 s⁻¹ and a kon (Human Serum Albumin [3]) of 670000 M⁻¹ s⁻¹.

B52: DOM7h-14 P44K (other)
VL: B1 VL with C43A, P44K
B52: binds (Human Serum Albumin [1]).

B53: DOM7h-14 A43S (other)
VL: B1 VL with C43S
B53: binds (Human Serum Albumin [1]).

B54: DOM7h-14 P44D (other)
VL: B1 VL with C43A, P44D
B54: binds (Human Serum Albumin [1]).

B55: DOM7h-11-15 A43D (other, name in Kabat numbering)
VL: DIQMTQSPSSLSASVGDRVTITCRASRPIGTMLSWYQQKPGKDPKLLILAFSRLQSGVPSRFSGSGSGTDFTLTISSLQPEDFATYYCAQAGTHPTTFGQGTKVEIKR
notes: also called A43D mutant of DOM7h-11-15
In the case of B55, the Kd (Human Serum Albumin [3]) is reported as 7000 nM, the koff (Human Serum Albumin [3]) is reported as 0.0047 s⁻¹ and the kon (Human Serum Albumin [3]) is reported as 664 M⁻¹ s⁻¹.
